Laboratory results taken from patent US20240043505A1 (UNIVERSITY OF PITTSBURGH OF THE COMMONWEALTH SYSTEM OF …, published 2024).
Where “and” joins values, the source holds several entries; their conditions need not be identical. Equal entries are not always repeated.

How the values were obtained:
[1] = target: SARS-CoV-2 spike receptor-binding domain (RBD) (SARS-CoV-2, UniProt P0DTC2 319-541); assay: indirect ELISA, RBD coated on plate, 4PL fit
[2] = target: SARS-CoV-2 (Wuhan-Hu-1 strain) spike glycoprotein on pseudotyped virus particles (SARS-CoV-2, UniProt P0DTC2 14-1273); assay: cell-based or functional assay
[3] = target: SARS-CoV-2 Munich strain spike glycoprotein on authentic virus (SARS-CoV-2); assay: cell-based or functional assay
[4] = target: SARS-CoV-2 spike glycoprotein (Wuhan-Hu-1 strain) on pseudotyped virus particles (SARS-CoV-2 (Wuhan-Hu-1 strain), UniProt P0DTC2 14-1273); assay: cell-based or functional assay

B1: Nb96 (VHH)
VHH: HVQLVESGGGLVQAGDSLRLSCAASGRDFSSYAMGWFRQAPGKEREFVGVISSGDVGTFYEDSVKGRFTISRDDAKNTVDLQMNSLKPEDTAVYYCAAALYVTSTRGSYAYWGQGTQVTVSS
B1 was tested, and the ELISA affinity [1] was 0.04 nM.

B2: Nb66 (VHH)
VHH: HVQLVESGGGLVQAGGSLRLSCAASGRTFSVNSIAWFRQAPGKEREFVATINWSGGDIYYADSVKGRFTISRDNGKNTVYLQMNSLKPTDTAVYYCAAARFYGRSIAQDYDSWGQGTQVTVSS
Work on B2 yielded an ELISA affinity [1] of 0.33 nM.

B3: Nb11 (VHH)
VHH: HVQLVESGGGLVQAGGSLRLSCAVSGASAERVGWFRRAPGKEREFVAAIGANGGSTNYLDSVKGRFTISRDNAKNTVYLQMNSLKPQDTAVYYCAARNLETFDYTYWGRGTQVTVSS
B3 was tested, and the “Pseudo-neut IC50 Luciferase” value [2] was 1.08 nM and the “Authentic virus PRNT IC50” value [3] was 0.8 nM.

B4: Nb78 (VHH)
VHH: QVQLVESGGGLVQAGGSLRLSCAISGASANRVGWFRRAPGKEREFVAAIGASGGMTNYLDSVKGRFTISRDNAKNTVYLQMNSLKPQDTAVYYCAARNIETAEYTYWGQGTQVTVSS
For B4, the “Pseudo-neut IC50 Luciferase” value [2] was 0.509 nM and the “Authentic virus PRNT IC50” value [3] was 0.766 nM.

B5: Nb94 (VHH)
VHH: QVQLVESGGGLVQAGGSLRLSCTASGGTFRSFTMAWFRQAPGKEREFVATLSWTGVGTYYADSVKGRFTISRDIAKNTVYLEMNSLIPEDTAVYYCAASPYTYSLLSRTGDYGYWGQGTQVTVSS
In the case of B5, the ELISA affinity [1] is reported as 0.5 nM.

B6: Nb6 (VHH)
VHH: HVQLVESGGGLVQAGGSLRLSCAASGRTFSTHATGWFRQAPGKEREFLATSVWLDDISRDSTYYAESVKGRFSISRDNAKDTVYLQMNSLKPEDTAVYYCAVKQRVGPGIMSAPTYDYWGQGTQVTVSS
In the case of B6, the “Pseudo-neutralization (GFP)” value [2] is reported as > 3 µM.

B7: Nb97 (VHH)
VHH: HVQLVESGGGLVQAGGSLRLSCAAPGRTFSTSAMGWFRQAPGKEREFVAAIDWSNTNIHYADTVKGRFTISTDTAKNTVYLQMNNLKPEDTAVYYCAQGGWGLTQPISVDYWGKGTQVTVSS
B7 showed an ELISA affinity [1] of 0.32 nM.

B8: Nb28 (VHH)
VHH: HVQLVESGGGLVQAGGSLRLSCAASGRTFSTSTMDMGWFRQAPGKEREFVGADSWNDGRTYYADSVKGRFTISRDNAKNTLYLQMNNLKPEDTAVYYCAAETYSLYEKSDSWGYWGQGTQVTVSS
B8 was tested, and the ELISA affinity [1] was 0.92 nM and the “Pseudo-neutralization IC50 (Luciferase)” value [4] was 6 nM.

B9: Nb36 (VHH)
VHH: HVQLVESGGGLVQAGGSLTLTCAASGRTFSSETMDMGWFRQAPGKEREFVAADSWNDGSTYYADSVKGRFTISRDSAKNTLYLQMNSLKPEDTAVYYCAAETYSIYEKDDSWGYWGQGTQVTVSS
B9 was tested, and the ELISA affinity [1] was 1.04 nM and the “Pseudo-neutralization IC50 (Luciferase)” value [4] was 7 nM.

B10: Nb28 (VHH)
VHH: HVQLVESGGGLVQAGGSLRLSCAASGRTFSTSTMDMGWFRQAPGKEREFVGADSWNDGRTYYADSVKGRFTISRDNAKNTLYLQMNNLKPEDTAVYYCAAETYSLYEKSDSWGYWGQGTQVTVSS
In the case of B10, the “Pseudo-neut IC50 Luciferase” value [2] is reported as 6.12 nM.

B11: Nb105 (VHH)
VHH: HVQLVESGGGLVQAGGSLRLSCAVSGRTFSTYGMAWFRQAPGKERDFVATITRSGETTLYADSVKGRFTISRDNAKNTVYLQMNSLKIEDTAVYYCAVRRDSSWGYSRDLFEYDYWGQGTQVTVSS
B11 showed an ELISA affinity [1] of 0.26 nM.

B12: Nb92 (VHH)
VHH: HVQLVESGGGLVQAGGSLRLSCAASGRTFSAYGMGWFRQAPGKEREFVAGIARSGSEYYGDSVKGRFTISRDNAKNTVYLQMASLKAEDTGVYYCAADPTILYHALSQRTQNYRYWGPGTQVTVSS
In the case of B12, the “Pseudo-neutralization (GFP)” value [2] is reported as > 3 µM.

B13: Nb93 (VHH)
VHH: EVQLVESGGGLVQPGGSLRLSCAASGFTFSSYAMSWVRQAPGKGREWVAGITPGSGTFYADSVKGRFTISRDNAKNTLSLEINSLKPEDTALYYCAKCRQEFSWDFSSRDPDDFDYWGQGTQVTVSS
B13 was tested, and the “Pseudo-neut IC50 Luciferase” value [2] was 14.5 nM.

B14: Nb93 (VHH)
VHH: EVQLVESGGGLVQPGGSLRLSCAASGFTFSSYAMSWVRQAPGKGREWVAGITPGSGTFYADSVKGRFTISRDNAKNTLSLEINSLKPEDTALYYCAKCRQEFSWDFSSRDPDDFDYWGQGTQVTVSS
B14 gave an ELISA affinity [1] of 1.15 nM.

B15: Nb102 (VHH)
VHH: QVQLVESGGGLVQAGGSLRLSCAASGRTFSNSHMGWFRQAPGKEREFVAVISRSGGSTLYADSVKGRFTISRDNAKNTVYLQMNSLKPEDTAVYYCAASRTAGLTSNRSLYDYWGRGTQVTVSS
B15 was tested, and the “Pseudo-neutralization (GFP)” value [2] was 0.5 µM and 3 µM.

B16: Nb102 (VHH)
VHH: QVQLVESGGGLVQAGGSLRLSCAASGRTFSNSHMGWFRQAPGKEREFVAVISRSGGSTLYADSVKGRFTISRDNAKNTVYLQMNSLKPEDTAVYYCAASRTAGLTSNRSLYDYWGRGTQVTVSS
B16 gave an ELISA affinity [1] of 28.4 nM.

B17: Nb90 (VHH)
VHH: HVQLVESGGGLVQAGGSLRLSCAVSGRTVSSYVMGWFRQAPGKEREFVAGIGRTGMTITADSVKGRFTISRDNAKNLVYLQMNSLKSEDTAVYWCAAGVRDFAPRIDSYDYWGQGTQVTVSS
B17 was tested, and the “Pseudo-neutralization (GFP)” value [2] was > 3 µM.

B18: Nb99 (VHH)
VHH: QVQLVESGGGLVQTGGSLRLSCAASGSTRSIWYSGWYRQAPGKQRELVASLTSGGTTYYPDSMKGRFTISGSSGLNMVYLQMNSLRPEDTAVYSCNVRTGSGVYWGQGTQVTVSS
In the case of B18, the “Pseudo-neut IC50 Luciferase” value [2] is reported as 0.524 nM and the “Authentic virus PRNT IC50” value [3] is reported as 0.452 nM.

B19: Nb99 (VHH)
VHH: QVQLVESGGGLVQTGGSLRLSCAASGSTRSIWYSGWYRQAPGKQRELVASLTSGGTTYYPDSMKGRFTISGSSGLNMVYLQMNSLRPEDTAVYSCNVRTGSGVYWGQGTQVTVSS
With B19 the ELISA affinity [1] was 0.35 nM.

B20: Nb82 (VHH)
VHH: DVQLVESGGGLVQAGGSLGLSCAASGSIFRLTAMGWYRQAPGKQRDLVTTITSAGIPHYADSVKGRFTISRDNAKNTVYLQMNGLKPEDTAVYYCYANTLNSQLLPRAYWGQGTQVTVSS
In the case of B20, the “Pseudo-neut IC50 Luciferase” value [2] is reported as 12.2 nM.

B21: Nb82 (VHH)
VHH: DVQLVESGGGLVQAGGSLGLSCAASGSIFRLTAMGWYRQAPGKQRDLVTTITSAGIPHYADSVKGRFTISRDNAKNTVYLQMNGLKPEDTAVYYCYANTLNSQLLPRAYWGQGTQVTVSS
For B21, the ELISA affinity [1] was 0.86 nM.

B22: Nb64 (VHH)
VHH: QVQLVESGGGLVQAGGSLRLSCAVSGRTFSIAGMGWFRQAPGKDREFLGGITWNDGTTWYADSVKGRFTISRDNAKNMLSLRMNSLKPEDTAVYYCAAGPRLGSTPRAYDYWGQGTQVTVSS
With B22 the “Pseudo-neut IC50 Luciferase” value [2] was 4.13 nM and the “Authentic virus PRNT IC50” value [3] was 4.88 nM.

B23: Nb64 (VHH)
VHH: QVQLVESGGGLVQAGGSLRLSCAVSGRTFSIAGMGWFRQAPGKDREFLGGITWNDGTTWYADSVKGRFTISRDNAKNMLSLRMNSLKPEDTAVYYCAAGPRLGSTPRAYDYWGQGTQVTVSS
Work on B23 yielded an ELISA affinity [1] of 0.45 nM.

B24: Nb107 (VHH)
VHH: HVQLVESGGGLVQAGGSLRLSCAASGRAIGIHRMAWFRQAPGKERAFVAAIQWTGDMPTYADSLKGRFTISADNAKNTVSLQMTSLKPDDTAVYYCAARSATTALYDYWGQGTQVTVSS
In the case of B24, the “Pseudo-neut IC50 Luciferase” value [2] is reported as 0.569 nM and the “Authentic virus PRNT IC50” value [3] is reported as 0.181 nM.

B25: Nb107 (VHH)
VHH: HVQLVESGGGLVQAGGSLRLSCAASGRAIGIHRMAWFRQAPGKERAFVAAIQWTGDMPTYADSLKGRFTISADNAKNTVSLQMTSLKPDDTAVYYCAARSATTALYDYWGQGTQVTVSS
B25 showed an ELISA affinity [1] of 0.76 nM.

B26: Nb48 (VHH)
VHH: HVQLVESGGGLVQAGGSLRLSCAASGSIFRHYNMGWFRQAPGKEREFVSAISWTNIGTYYADSVKGRFSISRDNNRNTAYLEMNSLKPEDTAVYYCAADRSEFGSRLYSDENEYDYWGQGTQVTVSS
With B26 the ELISA affinity [1] was 1.08 nM and the “Pseudo-neutralization (GFP)” value [4] was 500 nM.

B27: Nb48 (VHH)
VHH: HVQLVESGGGLVQAGGSLRLSCAASGSIFRHYNMGWFRQAPGKEREFVSAISWTNIGTYYADSVKGRFSISRDNNRNTAYLEMNSLKPEDTAVYYCAADRSEFGSRLYSDENEYDYWGQGTQVTVSS
With B27 the “Pseudo-neutralization (GFP)” value [2] was 0.5 µM and 3 µM.

B28: Nb95 (VHH)
VHH: QVQLVESGGGLVQAGGSLRLSCAASGRTFSSYSMGWFRQAQGKEREFVATINGNGRDTYYTNSVKGRFTISRDDATNTVYLQMNSLKPEDTAIYYCAADKDVYYGYTSFPNEYEYWGQGTQVTVSS
B28 showed an ELISA affinity [1] of 2.28 nM.

B29: Nb83 (VHH)
VHH: HVQLVESGGGLVQPGGSLRLSCAASGRSFNSYLMGWFRQAPGKEREFVAWISGSPHDIIRYRDSVKDRFTISRDNAKNTVYLQMNSLKPVDTAVYYCAVGSLRVGSFSPDYWGQGTQVTVSS
B29 showed an ELISA affinity [1] of 1.51 nM.
